{
  "source": "patent US20100048709A1",
  "about": "(UNIVERSITY OF BRITISH COLUMBIA, published 2010)",
  "key": {"[1]": {"target": "T1, recombinant rat thioredoxin-fused AR ligand binding domain (PanVera, 48.4 kDa) (rat, UniProt P15207 606-902)", "T1 sequence (looked up)": "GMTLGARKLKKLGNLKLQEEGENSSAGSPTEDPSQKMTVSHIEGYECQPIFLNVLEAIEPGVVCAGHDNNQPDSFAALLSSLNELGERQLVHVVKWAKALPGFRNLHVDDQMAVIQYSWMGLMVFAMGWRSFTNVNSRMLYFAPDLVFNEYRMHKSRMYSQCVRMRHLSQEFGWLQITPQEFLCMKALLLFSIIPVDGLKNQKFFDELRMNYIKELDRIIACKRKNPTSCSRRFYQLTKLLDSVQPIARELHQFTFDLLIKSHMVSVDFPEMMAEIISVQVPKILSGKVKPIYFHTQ", "assay": "cell-based or functional assay"}, "[2]": {"target": "T2, recombinant rat thioredoxin-fused AR ligand binding domain (PanVera, 48.4 kDa), P15207", "T2 chain": "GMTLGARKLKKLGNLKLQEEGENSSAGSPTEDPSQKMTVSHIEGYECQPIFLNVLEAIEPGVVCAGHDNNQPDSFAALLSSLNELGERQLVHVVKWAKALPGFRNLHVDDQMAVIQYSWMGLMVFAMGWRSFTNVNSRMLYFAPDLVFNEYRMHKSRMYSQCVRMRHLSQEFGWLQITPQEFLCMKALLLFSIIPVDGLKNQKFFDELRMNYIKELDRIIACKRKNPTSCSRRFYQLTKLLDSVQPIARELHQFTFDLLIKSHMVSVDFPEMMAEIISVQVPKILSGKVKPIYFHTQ"}},
  "data": [
    {"binder": "purified His-tagged-DDC protein (6x-His N-terminal fusion of dopa decarboxylase) (enzyme, human, UniProt P20711 2-480, looked up, not shown: small tags and cut ends) NASEFRRRGKEMVDYMANYMEGIEGRQVYPDVEPGYLRPLIPAAAPQEPDTFEDIINDVEKIIMPGVTHWHSPYFFAYFPTASSYPAMLADMLCGAIGCIGFSWAASPACTELETVMMDWLGKMLELPKAFLNEKAGEGGGVIQGSASEATLVALLAARTKVIHRLQAASPELTQAAIMEKLVAYSSDQAHSSVERAGLIGGVKLKAIPSDGNFAMRASALQEALERDKAAGLIPFFMVATLGTTTCCSFDNLLEVGPICNKEDIWLHVDAAYAGSAFICPEFRHLLNGVEFADSFNFNPHKWLLVNFDCSAMWVKKRTDLTGAFRLDPTYLKHSHQDSGLITDYRHWQIPLGRRFRSLKMWFVFRMYGVKGLQAYIRKHVQLSHEFESLVRQDPRFEICVEVILGLVCFRLKGSNKVNEALLQRINSAKKIHLVPCHLRDKFVLRFAICSRTVESAHVQRAWEHIKELAADVLRAERE", "values": [
      {"measurement": "apparent affinity for androgen (R1881) by the AR-LBD, hydroxylapatite pulldown ligand binding assay", "setting": "[1]", "result": 2.1, "unit": "fold"},
      {"measurement": "increase in bound R1881 at 100 nM R1881", "setting": "[1]", "result": 1.75, "unit": "fold"},
      {"measurement": "increase in bound R1881 at 1000 nM R1881", "setting": "[1]", "result": 1.71, "unit": "fold"},
      {"measurement": "R1881 concentration required to 50% saturate total AR-LBD protein", "setting": "[2]", "result": "in the absence of His-DDC, an R1881 concentration of 883 nM was required to 50% saturate total AR-LBD protein, while in the presence of His-DDC a lower androgen amount of 425 nM was necessary"}
    ]}
  ]
}
